Reference: patent US20230383012A1 (Xencor, published 2023)
Substitutions are numbered along the chain they refer to.

B1: XENP39368 (bispecific antibody)
heavy: EVQLLESGGGLVQPGGSLRLSCAASGFTFSSYDMSWVRQAPGKRLEWVSTISSGGSFTHYPDSVKGRFTISRDNSKNTLYLQMNSLRAEDTAVYYCARRSLDWYFDVWGAGTTVTVSSASTKGPSVFPLAPSSKSTSGGTAALGCLVKDYFPEPVTVSWNSGALTSGVHTFPAVLQSSGLYSLSSVVTVPSSSLGTQTYICNVNHKPSDTKVDKKVEPKSCDKTHTCPPCPAPPVAGPSVFLFPPKPKDTLMISRTPEVTCVVVDVKHEDPEVKFNWYVDGVEVHNAKTKPREEEYNSTYRVVSVLTVLHQDWLNGKEYKCKVSNKALPAPIEKTISKAKGQPREPQVYTLPPSREEMTKNQVSLTCDVSGFYPSDIAVEWESDGQPENNYKTTPPVLDSDGSFFLYSKLTVDKSRWEQGDVFSCSVMHEALHNHYTQKSLSLSPGK
scFv-Fc: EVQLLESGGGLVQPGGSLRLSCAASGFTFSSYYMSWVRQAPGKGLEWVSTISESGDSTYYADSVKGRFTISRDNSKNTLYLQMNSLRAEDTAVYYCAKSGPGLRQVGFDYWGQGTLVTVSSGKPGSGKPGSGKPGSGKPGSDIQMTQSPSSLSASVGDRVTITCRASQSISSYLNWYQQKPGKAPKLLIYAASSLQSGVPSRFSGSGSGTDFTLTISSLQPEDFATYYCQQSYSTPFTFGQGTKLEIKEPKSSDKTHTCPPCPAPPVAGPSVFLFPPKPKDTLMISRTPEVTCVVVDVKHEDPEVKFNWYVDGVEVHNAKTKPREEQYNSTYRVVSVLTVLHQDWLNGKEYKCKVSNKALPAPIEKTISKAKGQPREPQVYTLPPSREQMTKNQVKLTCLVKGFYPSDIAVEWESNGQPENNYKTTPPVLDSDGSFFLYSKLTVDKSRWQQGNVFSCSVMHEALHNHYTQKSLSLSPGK
light: EIVLTQSPGTLSLSPGERATLSCRVSSSIQSTNLHWYQQKPGQSPRPLIYGTSVLATGVPVRFSGSGSGTDYTLTISRLEPEDFAVYYCQQWSSYPLYTFGGGTKVEIKRTVAAPSVFIFPPSDEQLKSGTASVVCLLNNFYPREAKVQWKVDNALQSGNSQESVTEQDSKDSTYSLSSTLTLSKADYEKHKVYACEVTHQGLSSPVTKSFNRGEC
B2: XENP39365 (bispecific antibody)
heavy: B1 heavy
scFv-Fc: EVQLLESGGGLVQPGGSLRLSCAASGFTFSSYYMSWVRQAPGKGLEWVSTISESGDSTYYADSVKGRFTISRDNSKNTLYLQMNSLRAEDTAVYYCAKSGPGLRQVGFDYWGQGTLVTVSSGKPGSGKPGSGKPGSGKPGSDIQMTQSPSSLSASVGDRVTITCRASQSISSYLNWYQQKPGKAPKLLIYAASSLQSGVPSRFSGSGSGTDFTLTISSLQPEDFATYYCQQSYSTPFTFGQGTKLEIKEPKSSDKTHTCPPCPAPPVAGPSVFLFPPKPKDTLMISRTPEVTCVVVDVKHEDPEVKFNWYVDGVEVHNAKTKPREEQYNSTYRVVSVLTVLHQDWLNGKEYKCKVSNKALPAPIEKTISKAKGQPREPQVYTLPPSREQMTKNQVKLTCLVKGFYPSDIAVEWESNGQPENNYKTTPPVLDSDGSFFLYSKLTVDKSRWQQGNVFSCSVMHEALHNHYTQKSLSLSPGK
light: B1 light with S27L, T32S, S53N, V54L, T57S
B3: PDL1 binding domain 2G4_H1.12_L1.68 (Fab, V domains shown)
VH: EVQLLESGGGLVQPGGSLRLSCAASGFTFSVYDMSWVRQAPGKRLEWVSTISSGGSFTHYPDSVKGRFTISRDNSKNTLYLQMNSLRAEDTAVYYCVRRSLDWYFDVWGAGTTVTVSS
VL: EIVLTQSPGTLSLSPGERATLSCRVSSSIQSTNLHWYQQKPGQSPRPLIYGTSNLASGVPVRFSGSGSGTDYTLTISRLEPEDFAVYYCQQWSSYPLYTFGGGTKVEIK
B4: PDL1 binding domain 2G4_H1.12_L1.66 (Fab, V domains shown)
VH: B3 VH
VL: B3 VL with S57T
B5: PDL1 binding domain 2G4_H1.12_L1.14 (Fab, V domains shown)
VH: B3 VH
VL: B3 VL with T32S
notes: also called as in XENP40409 and XENP40706
B6: XENP38514 (bispecific antibody)
heavy: B1 heavy with S31V, A97V
scFv-Fc: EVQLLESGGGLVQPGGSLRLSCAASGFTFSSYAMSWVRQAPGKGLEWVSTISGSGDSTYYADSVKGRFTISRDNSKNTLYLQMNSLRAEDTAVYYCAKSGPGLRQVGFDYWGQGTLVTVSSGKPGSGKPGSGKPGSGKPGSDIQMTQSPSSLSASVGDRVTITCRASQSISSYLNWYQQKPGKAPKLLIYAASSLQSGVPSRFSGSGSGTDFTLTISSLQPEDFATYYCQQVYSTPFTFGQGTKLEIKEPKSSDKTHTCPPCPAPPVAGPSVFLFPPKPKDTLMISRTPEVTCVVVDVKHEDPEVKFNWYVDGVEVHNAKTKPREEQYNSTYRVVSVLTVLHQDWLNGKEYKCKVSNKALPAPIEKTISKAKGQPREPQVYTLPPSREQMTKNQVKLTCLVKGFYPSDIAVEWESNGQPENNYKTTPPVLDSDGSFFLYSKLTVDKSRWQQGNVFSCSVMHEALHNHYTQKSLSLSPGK
light: B1 light
notes: also called αPDL1×αCD28 bsAb XENP38514
B7: XENP37561 (bispecific antibody)
chain 1: B1 heavy with A97V, L101G
chain 2: not shown
chain 3: B1 light with Q30S, T32S, V54N, T57S
B8: XENP37412 (bispecific antibody)
chain 1: B1 heavy with A97V, L101G
chain 2: not shown
chain 3: B1 light with Q30S, T32S, V54N, T57S
B9: XENP37560 (bispecific antibody)
chain 1: B1 heavy with A97V, L101G
chain 2: not shown
chain 3: B1 light with Q30S, T32S, V54N, T57S
B10: XENP37559 (bispecific antibody)
chain 1: B1 heavy with A97V, L101G
chain 2: not shown
chain 3: B1 light with Q30S, T32S, V54N, T57S
B11: XENP36233 (bispecific antibody)
chain 1: B1 heavy with A97V, L101G
chain 2: not shown
chain 3: B1 light with Q30S, T32S, V54N, T57S
B12: XENP37261 (bispecific antibody)
chain 1: B1 heavy with A97V, L101G
chain 2: not shown
chain 3: B1 light with Q30S, T32S, V54N, T57S

Molecular target: T1, human PDL1 (human, UniProt Q9NZQ7 19-238)
T1 construct: his-tagged in the Carterra assay; also called PDL1 antigen
Experiment: descriptor in the SEB-stimulated PBMC example

Row | binding result | Binder
1 | binds | B1
2 | binds | B2

Molecular target: T1, human PDL1
Experiment: PDL1 binding affinity; Biacore per paragraph 695, in PDL1×CD28 bsAb

Row | Kd [µM] | Binder
3 | 0.0008 | B3
4 | 0.00086 | B4
5 | 0.00042 | B5
6 | 0.00017 | B6

Molecular target: T2, human CD28 antigen (human, UniProt P10747 19-152)
T2 construct: also called his-tagged CD28 antigen
Experiment: CD28 binding affinity; Octet per paragraph 712, scFv in 1+1 Fab-scFv-Fc PDL1×CD28 bsAb

Row | Kd [µM] | Binder
7 | 0.037 | B7
8 | 0.286 | B8
9 | 0.096 | B9
10 | 0.18 | B10
11 | 0.24 | B11
12 | 0.036 | B12
